From the DeepSol protein solubility set come the findings set out here.

This series is described as follows: soluble on expression in E. coli; label from the status in PepcDB or PDB records.
Consider “MEHHHHHHATNLRGVMAALLTPFDQQQALDKASLRRLVQFNIQQGIDGLYVGGSTGEAFVQSLSEREQVLEIVAEEAKGKIKLIAHVGCVSTAESQQLAASAKRYGFDAVSAVTPFYYPFSFEEHCDHYRAIIDSADGLPMVVYNIPALSGVKLTLDQINTLVTLPGVGALKQTSGDLYQMEQIRREHPDLVLYNGYDNIFASGLLAGADGGIGSTYNIMGWRYQGIVKALKEGDIQTAQKLQTECNKVIDLLIKTGVFRGLKTVLHYMDVVSVPLCRKPFGPVDEKYLPELKALAQQLMQER”, for which the “soluble on expression in E. coli” value is given as “soluble”. Take “MEHKIGRGLLLGGLLSRFAGFLQSSEESLTSSFASYSSSFFLLTNTRDKRRSERTHTYMQVAQIICAHGATISTTRATLQRAPQSLLATSPDATSDSDDKIVRILVEALRRSDMSIIVSESFDQWARLAVEAKRLGLISFVEAACPSTISISCHAALSTGRINPEVTFRKVHNIHFMAQKTTGKAFASSNPEPVKGTTTSPFFLLSFFFPFFCSFLLRFSPINFPLLLLMNTAIGEYVLRIVVSGKVIMCRAVFGDSLNECRDGGGTDFEMDRYTSR”: the “soluble on expression in E. coli” value is on record as “not soluble”. The entry for “MEHKIREEMRVLPSIDPQFEIERRVAFIKRKLTEARCKSLVLGISGGVDSTTCGRLAQLAVEELNQQHNTTEYQFIAVRLPYGEQKDEDEAQLALSFIRPTHSVSVNIKAGVDGLHAASHHALANTGLIPSDPAKVDFIKGNVKARARMVAQYEIAGYVGGLVLGTDHSAENITGFYTKFGDGACDLAPLFGLNKRQVRLLAKTLGAPEQLVYKTPTADLEELAPQKADEAALNLTYEQIDDFLEGKAVPAEVSQRLVAIYHATQHKRQPIPTIYD” is “soluble”; for “MEIELICICCPKGCHLKVDDKSLRVEGNNCPRGAEYGVNEITNPVRTITSTVKVEKGEAVIVPVKTKEPIPKKLTMGCMEEINKAVINAPVKIGDVVIKNVLGTGIDVVATKNVSGI” it is “soluble”; for “MEINEKLLRQIIEDVLSEMKGSDKPVSFNAPAASAAPQATPPAGDGFLTEVGEARQGTQQDEVIIAVGPAFGLAQTVNIVGIPHKSILREVIAGIEEEGIKARVIRCFKSSDVAFVAVEGNRLSGSGISIGIQSKGTTVIHQQGLPPLSNLELFPQAPLLTLETYRQIGKNAARYAKRESPQPVPTLNDQMARPKYQAKSAILHIKETKYVVTGKNPQELRVAL” it is “soluble”. The entry for “MEINSREVYVFTPKGDVMSLPQGATPVDFAYAVHTEVGHRCIGARVNGKLVTLDTKLNNGDVIDILTSNAPDAGPSRLEHHHHHH” is “not soluble”; for “MEINVQSDVGRKRNTNQDYANVFENQQHITFAVLADGMGGHQAGDVASQMAVNNLGESWSNASVDSAEKSAQWLIQAIQKENEKIYERGQSKPEYLGMGTTVVGAILLPDSFVLANVGDSRAYLVRDQHMLQLTEDHSLVNELVKSGEITREMAANHPRKNVLTRSLGMPGTVEVDVTNHEWLPNDYLLLCSDGLTNMVPETKILEILETSDPLESKLSQLVAQANEAGGLDNITVLVIHFDEQKEENQ” it is “not soluble”; for “MEISTLLALSPLDGRYQQKVAALRPFFSEYALIRNRIHVEIEWFKALGNTPALTGASSLSTGAVVQLDQLVENFSVTDAEAVKSIETRTNHDVKAVEYWLKEKLTGDQETAAISE” it is “not soluble”. The entry for “MEITNVNEYEAIAKQKLPKMVYDFYASGAEDQWTLAENRNAFSRILFRPRILIDVTNIDMTTTILGFKISMPIMIAPTAMQKMAHPEGEYATARAASAAGTIMTLSSWATSSVEEVASTGPGIRFFQLYVYKDRNVVAQLVRRAERAGFKAIALTVDTPRLGRREADIKNRFVLPPFLTLKNFEGIDLGKMDKANDSGLSSYVAGQIDRSLSWKDVAWLQTITSLPILVKGVITAEDARLAVQHGAAGIIVSNHGARQLDYVPATIMALEEVVKAAQGRIPVFLDGGVRRGTDVFKALALGAAGVFIGRPVVFSLAAEGEAGVKKVLQMMRDEFELTMALSGCRSLKEISRSHIAADWDGPSSRAVARL” is “soluble”. On to “MEIYLVFVDAASNSNKFWTAKVEQNQLTVQWDRVGYKAQTKVHQFTSQAQAANKYNNLVFEKKAKGYQESQPQIESCGVVDIRRAMQLLNGLRSYVTNRNFNADYINLLNQYLKIIPTPLGMQLEPYRIFTSVADVDHQRELLSSLIPATPVAVTQAKQMPESQEKIVSLRGIHKNLWRHFLEHHHHHH”, for which the “soluble on expression in E. coli” value is on record as “not soluble”.

As for “MEKLSSSSHFLDLGGLDNLRAQAQKDEKGALKKVAQQFEGVFVQMLMKSMRDANAVFESDSPLNSQYTKFYEQMRDQQLSVDLSDKGVLGLADMMVQQLSPESSPFTPASVLRNDGGMKLEHDAKALNIPTQTPSTAEAESANTPVVVAHGVPASIARPSVEFEDNNGVTSSLDIDRPQRLLAIDTPKPTWSEQPLSAIEPVISGQILPTVAFRETQKTLKFGSREEFLATLYPHAEKAAKALGTKPEVLLAQSALETGWGQKIVRGHNGAPSHNLFNIKADRRWQGDKANVSTLEFEQGIAVRQKADFRVYNDFDHSFNDFVSFIADGERYQDAKKVAASPTQFIRALQEAGYATDPKYAEKVIKVMQSISEELKSILPGEDK”, the “soluble on expression in E. coli” value is “not soluble”. The entry for “MEKRGKVWLAVSGLVATKDGRWLFVKKKYSGLKGKWSLPAGFVNEGETVDEAVKREVLEETGIVAHVKGIIGVRSGVIRNEISDNMIIFLLEPEGENIIIQEKELSEVAFLHPDKIVDDPNTSVLIKYLLEGRSELHLEVDKTLNPGEPFGYTAYHVFTARAKERGKE” is “not soluble”.

Regarding “MEKSAPSIILNHWCVTWQGHHFLCRNLSNIKILNRRNGYTTLDLPLTLGDLTQYRLAHGLSENLMALSPYSWTIPFLVSSSETPGIELLPKVINDFGTPLSLAIKTNLPSIPAHQLLFYIIFLRPSPLTSMSCYARPLSLASTPSLEHHHHHH”, the “soluble on expression in E. coli” value was “soluble”. The entry for “MEKSKPNVVFVLGGPGSGKGTQCANIVRDFGWVHLSAGDLLRQEQQSGSKDGEMIATMIKNGEIVPSIVTVKLLKNAIDANQGKNFLVDGFPRNEENNNSWEENMKDFVDTKFVLFFDCPEEVMTQRLLKRGESSGRSDDNIESIKKRFNTFNVQTKLVIDHYNKFDKVKIIPANRDVNEVYNDVENLFKSMGF” is “soluble”. The entry for “MEKSLETVPGLDLSGEDIEMYYQYVRFVDRFLRFNRNYQIEYFKLSYPGDGSSEREVDLLKRWIDTVIQLKVKDLDFFDYSWEWGFDNFQLPSTIYICESLVSLKLSTVTLPSVKSVSLPFLRVLKLGAVKFADHLDLETLISGCTALETLAIRFFDRVQVLQVSSQSLLSFTHVAPKLVFTHAVRKPLAEKDLSIVIDAPRLEYLKLSDHQTSSFIIKNPGSLVAVDIDINLSSGFDSRNMIRDFLVGISSVKNMTISSIILKFYDYRFKMLPTFLEICPNLKSLILKSTEELGIKESSMFSGPQDFLPSLEYVEMKMPLKKGLLLEIRMLVGYFLEKATILKKLTLCLDDYRKRKESLIPRILAIPRISTSCEVVVL” is “soluble”; for “MEKTSNTSKPLSRSEINKIIAVATGIKEKKIKEIFKYLNTLLLNELVSRSVCILPENLGKLRITIRNARYQKDMQTGEIRHIPPKPLVRYSPSKTIKETAAKVRWKYAD” it is “soluble”. Take “MEKVHAALTNPAYWDFIVKNLSPEPGEVHEFTEANGGAVATLFEVLPQELLPEAIRAMISQALKVKRVVTVGGLNGTSAPLSYTADVKGTPVDFKGEISMNGLGNTTTLSYANEITVNIPLMGAAIEPKVGQALADLFQNEGDLTSKWISKNL”: the “soluble on expression in E. coli” value is “not soluble”.

With “MELAKFIGLTTFQDILEDCFALLVYERPEESNVGYFLEETQREVVADTVNAAILSTKPKGKNQSHSHLETLLRQLTACCLELRSLNDGQGEAFSLNRLLRTNNWKRTKKTT”, the “soluble on expression in E. coli” value is given as “soluble”.

As to “MELAQEARELGCWAVEEMGVPVAARAPESTLRRLCLGQGADIWAYILQHVHSQRTVKKIRGNLLWYGHQDSPQVRRKLELEAAVTRLRAEIQELDQSLELMERDTEAQDTAMEQARQHTQDTQRRALLLRAQAGAMRRQQHTLRDPMQRLQNQLRRLQDMERKAKVDVTFGSLTSAALGLEPVVLRDVRTACTLRAQFLQNLLLPQAKRGSLPTPHDDHFGTSYQQWLSSVETLLTNHPPGHVLAALEHLAAEREAEIRSLCSGDGLGDTEISRRAGGLWVCWSPSGAPS”, the “soluble on expression in E. coli” value is “soluble”. The value for “MELLCPAGNLASLKSALQAGADAVYLGLKDDTNARSFAGLNFTPAKLQEAAELTHQRGKKIFLTLNTFPKPNEEHRWYQAIDLAAKIGVDALIVADLSLLDYAHRQYPHIPLHLSVQASATNLGALSFYKEAFNVSRVVLPRVLSMKQVRDLAKVSPVDLEVFAFGSLCIMAEGRCHLSSYVTGQSPNTGGSCSPAKHVRWQEQGQDRLTWLNEVLIDKSGLDEQMGYPVVCKGRYLTQEDDKPQYLLESPTSLNTLSLLPELAKAGIVSLKIEGRQRSPAYVEQVTKVWRQAIDTYLNHPDKFQTQAHWEQALAKVSEGQITTLGAYERNWQ” was “not soluble”; that for “MELLLYSLDNEGPIRFIQITDTHLVEAADGHLLGLETQNSLEHVLSSVQSENDQFDFFVVSGDISQDGSLSSYQRLHESLAPFNVPSFWFPGNHDEMSNMKVVCQDTEHLVNIIRTPHWQLVLLNSQVEGAVFGNLGDDQFELLERALTERPDLHTLISLHHHPIPMESNWMDKIGVKNGDKLMAMARKYPKVKCILWGHVHQDSDRMVDGIRMLSTPSTCVQFMPKSKDFNIDMIAPGYRRLQLNPDGSIETEMSRVEGIEFEVDLSVKGY” was “soluble”; that for “MELSSPGVGSGLDVKNLVDAIVTAEITPSQVRHDKQLNSVNTELSALGQLKSYLTNLQTSLAKLSSLSQFYTMKSTISDPNYFSATLGTGATKNTYQIEIQKLAQQHS” was “not soluble”. The entry for “MELWGRMLWALLSGPGRRGSTRGWAFSSWQPQPPLAGLSSAIELVSHWTGVFEKRGIPEARESSEYIVAHVLGAKTFQSLRPALWTQPLTSQQLQCIRELSSRRLQRMPVQYILGEWDFQGLSLRMVPPVFIPRPETEELVEWVLEEVAQRSHAVGSPGSPLILEVGCGSGAISLSLLSQLPQSRVIAVDKREAAISLTHENAQRLRLQDRIWIIHLDMTSERSWTHLPWGPMDLIVSNPPYVFHQDMEQLAPEIRSYEDPAALDGGEEGMDIITHILALAPRLLKDSGSIFLEVDPRHPELVSSWLQSRPDLYLNLVAVRRDFCGRPRFLHIRRSGP” is “soluble”. As for “MEMAYDFAETKDTAIIFIYRPPVGDIQISPVLEGPRRLRLWNDITISLYKDVYPDIRLIESRSRVEVHLRKVEMVRWGGINGRPADKPQDDGKETMVEDSGDEENPSVMDLFSKIYQRSGDDVRRAMEKSFYESEGTVLSTDWDQVKSKKITRED”, the “soluble on expression in E. coli” value is reported as “not soluble”. As to “MEMDKAVTGVALDLDHAQIGLIGIPDQPGIAAKVFQALAERGIAVDMIIQGVPGHDPSRQQMAFTVKKDFAQEALEALEPVLAEIGGEAILRPDIAKVSIVGVGLASTPEVPAKMFQAVASTGANIEMIATSEVRISVIIPAEYAEAALRAVHQAFELDKAHHHHHH”, the “soluble on expression in E. coli” value is given as “soluble”. Regarding “MEMKQISETTLKITISMDDLEERGMELKDFLIPQEKTEEFFYSVMDELDLPDNFKDSGMLSFRVTPRKDRLDVFVTKSEINKDINLEDLAEFGDMSQMTPEDFFKSLEQSMREKGDVKAHEKLEKIEEIMEDVVEATLANQSEAADPSTNHESEPLDYVHYVLDFSTITEAVAFAKTIDFSIEASELYKGSNCYHMTILLDVQQQPSYFANVMYARLIEHANPGSKTRAYLQEHGLQLMLDGAVEQLQKIELG”, the “soluble on expression in E. coli” value is given as “not soluble”.
